Article PMC10228794

What follows are substances tested against 10.17DT SOSIP (assay: SPR). Conditions: mutated DH270 UCA antibodies were injected at 100nM; 3000–4000 RUs of 10.17DT on the sensor chip; parent: est. 43; read off a plot.
“DH270 UCA IgG (unmutated common ancestor of bnAb DH270.6) Y111N” showed a response of 0 RU.
For “DH270 UCA IgG (unmutated common ancestor of bnAb DH270.6) W101F”, the response was 36 RU.
In the case of “DH270 UCA IgG (unmutated common ancestor of bnAb DH270.6) I102L”, the response is reported as 29 RU.
Substance “DH270 UCA IgG (unmutated common ancestor of bnAb DH270.6) Y111H” has a response of 25 RU.
Substance “DH270 UCA IgG (unmutated common ancestor of bnAb DH270.6) W101G” has a response of 3.5 RU.
Work on “DH270 UCA IgG (unmutated common ancestor of bnAb DH270.6) I102S” yielded a response of 34 RU.
“DH270 UCA IgG (unmutated common ancestor of bnAb DH270.6) W101Y” showed a response of 15 RU.
With “DH270 UCA IgG (unmutated common ancestor of bnAb DH270.6) W101R” the response was 0 RU.
Work on “DH270 UCA IgG (unmutated common ancestor of bnAb DH270.6) I102D” yielded a response of 6.5 RU.
“DH270 UCA IgG (unmutated common ancestor of bnAb DH270.6) I102N” gave a response of 43 RU.
“DH270 UCA IgG (unmutated common ancestor of bnAb DH270.6) Y111F” gave a response of 38 RU.
“DH270 UCA IgG (unmutated common ancestor of bnAb DH270.6) Y111W” was tested, and the response was 26 RU.
“DH270 UCA IgG (unmutated common ancestor of bnAb DH270.6) I102V” was tested, and the response was 54 RU.
